Source: patent US20170283486A1

Key:
[1] = biological target: single-chain gp120BaL-sCD4 complex (FLSC) (HIV-1 isolate BaL) (UniProt P01730); assay: SPR, mAb immobilised, 1:1 Langmuir
[2] = biological target: monomeric full length gp120 of BaL isolate (HIV-1 isolate BaL); assay: SPR, mAb immobilised, 1:1 Langmuir
[3] = biological target: single-chain gp120BaL-sCD4 complex (FLSC) (HIV-1 isolate BaL) (UniProt P01730); assay: isothermal titration calorimetry, A32 IgG

Substance	Kd [1] [nM]	fold change of KD, FLSC relative to gp120BaL [1] [fold]	fold change of ka, FLSC relative to gp120BaL [1] [fold]	fold change of kd, FLSC relative to gp120BaL [1] [fold]	koff [1] [s⁻¹]	kon [1] [M⁻¹ s⁻¹]	Kd [2] [nM]	koff [2] [s⁻¹]	kon [2] [M⁻¹ s⁻¹]	Kd [3] [nM]	ΔH [3] [kcal/mol]
mAb 2.2c (antibody)	0.5	24	15.7	1.6	0.000556	1.15e+06	12	0.000875	73000	–	–
mAb A32 (antibody)	0.23	13.9	3.2	4.3	0.000102	443000	3.2	0.000437	139000	11.5	-3.15
mAb JR4 (antibody)	0.18	13	2.5	5.3	0.000116	643000	2.34	0.000611	262000	–	–
mAb N5-i5 (antibody)	0.29	17.3	11.5	1.5	0.000238	825000	5.03	0.00036	72000	–	–
mAb N60-i3 (antibody)	0.25	8	4.9	1.6	0.000314	1.24e+06	2.03	0.000512	253000	–	–
